One test has as its target T1, PEc fragment aa 1-12 (human).
T1 peptide: YQPPSTNKNTKS
The test can be described thus: dot blot on nitrocellulose.

Another test has as its target T2, PEc fragment aa 13-24 (human).
T2 construct: also called the last 12 amino acids
T2 peptide: QRRKGSTFEERK
Kind of test: dot blot, peptide on nitrocellulose, 2.5 µg/mL MAb.

The target in test [1] is T3, human Ec peptide (PEc), whole, 24 amino acids (human).
T3 construct: also called human PEc; whole PEc
T3 peptide: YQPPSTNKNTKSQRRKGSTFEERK
The test can be described thus: dot blot, peptide on nitrocellulose, 2.5 µg/mL MAb.

B1: anti-PEc monoclonal antibody (MAb) of Example 1 (antibody, mouse IgG1, kappa, V domains shown)
VH: EVQLQQSGAELVRSGASVKLSCAASGFNLKDYYIHWVKQRPEQGLEWIGWIDPENGDTEYAPKFQGRATMTADTSSNTAYLHLSSLTSEDTAVYYCFANDVDCWGQGTTLTVSS
VL: DVVMTQPPLSLPVSLGDQASISCRSSQSLVHSNGKTYLHWYLQKPGQSPKLLIYKLSNRFSGVPDRFSGSGSGTDFTLKISRVEAEDLGVYFCFQSTHIPYTFGGGSKLEIRR
notes: Obtained from a mouse hybridoma, then expressed recombinantly in CHO cells; Called an IgG MAb; captured with anti-mouse Fc and detected with anti-mouse HRP; also called anti-PEc MAb; anti PEc MAb
Turning to B1, the binding result in the test with PEc fragment aa 1-12 is reported as “no binding”; in the test with PEc fragment aa 13-24 it was “binds”; in test [1], “binds”.

Source of the values: patent EP4635986A1 (National and Kapodistrian University of Athens, dated 2025).
